Measurements reported in article PMC10803429.

Target: SpyTag-VP2 (N-terminal SpyTag chimera of the major structural protein VP2 of parvovirus B19) (not stated | parvovirus B19)
Assay: SEC + other: light scattering (MALS, Zetasizer Ultra); different amounts of SpyTag-VP2 (2.5-60 mL of 0.142 mg/mL) loaded on a 5-mL HisTrap HP column; peak run on Sephacryl 300-HR in 2 M GdnHCl buffer; fractions of 18-28 nm pooled, BCA

Substance: SpyTag-VP2 (N-terminal SpyTag chimera of the major structural protein VP2 of parvovirus B19)
- percent of the loaded protein recovered as VLPs: 95%
